Reference: publication PMC4263579

Molecular target: recombinant NS1 protein (dengue virus non-structural 1 protein)
Assay: native gel or EMSA; Native-PAGE of the recombinant NS1 protein; data not shown

Substance: recombinant NS1 protein (dengue virus non-structural 1 protein)
- stoichiometry N: 6
